EP3470426A1

Biological target: T1, mouse CD137-Fc chimeric protein (mouse), P20334
T1 chain: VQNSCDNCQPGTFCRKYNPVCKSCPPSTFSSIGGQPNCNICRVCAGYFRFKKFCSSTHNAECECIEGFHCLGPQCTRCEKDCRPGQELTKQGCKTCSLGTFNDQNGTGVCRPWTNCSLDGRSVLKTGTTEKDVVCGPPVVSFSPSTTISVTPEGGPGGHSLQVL
Assay: SPR, CD137-Fc captured, binder injected
Conditions: remark: other sources report otherwise

Kd: 170 nM
koff: 0.059 s⁻¹
kon: 350000 M⁻¹ s⁻¹
B1: PRO963 (protein)
chain: DIQMTQSPSSLSASVGDRVTITCQASQSINDYLAWYQQKPGKAPKLLIYKASTLASGVPSRFSGSGSGTDFTLTISSLQPEDFATYYCQQGYIITDIDNVFGTGTKVTVLGGGGGSQVQLQESGPGLVKPSETLSLTCKVSGFSFSNSYWICWIRQPPGKGLEWIGCTFVGSSDSTYYANWAKGRVTISVDSSKNQFSLKLSSVTAADTAVYYCARHPSDAVYGYANNLWGQGTLVTVSSGGGGSGGGGSGGGGSGGGGSIQMTQSPSSLSASVGDRVTITCQASQSINNVLAWYQQKPGKAPKLLIYRASTLASGVPSRFSGSGSGTDFTLTISSLQPEDFATYYCQSSYGNYGDFGTGTKVTVLGGGGGSQVQLQESGPGLVKPSETLSLTCKVSGFSFSSGYDMCWIRQPPGKGLEWIGCVVAGSVDITYYASWAKGRVTISVDSSKNQFSLKLSSVTAADTAVYYCARKDAYSDAFNLWGQGTLVTVSSGGGGSGGGGSIQMTQSPSSLSASVGDRVTITCQSSESVYSNNQLSWYQQKPGQPPKLLIYDASDLASGVPSRFSGSGSGTDFTLTISSLQPEDFATYYCAGGFSSSSDTAFGGGTKLTVLGGGGGSGGGGSGGGGSGGGGSEVQLVESGGGLVQPGGSLRLSCAASGFSLSSNAMGWVRQAPGKGLEYIGIISVGGFTYYASWAKGRFTISRDNSKNTVYLQMNSLRAEDTATYFCARDRHGGDSSGAFYLWGQGTLVTVSS
